Source: IntAct's records for PubMed 19407143

B1: Protein phosphatase 2C 77 (Arabidopsis thaliana (Mouse-ear cress)), O04719 (parent)
chain: MDEVSPAVAVPFRPFTDPHAGLRGYCNGESRVTLPESSCSGDGAMKDSSFEINTRQDSLTSSSSAMAGVDISAGDEINGSDEFDPRSMNQSEKKVLSRTESRSLFEFKCVPLYGVTSICGRRPEMEDSVSTIPRFLQVSSSSLLDGRVTNGFNPHLSAHFFGVYDGHGGSQVANYCRERMHLALTEEIVKEKPEFCDGDTWQEKWKKALFNSFMRVDSEIETVAHAPETVGSTSVVAVVFPTHIFVANCGDSRAVLCRGKTPLALSVDHKPDRDDEAARIEAAGGKVIRWNGARVFGVLAMSRSIGDRYLKPSVIPDPEVTSVRRVKEDDCLILASDGLWDVMTNEEVCDLARKRILLWHKKNAMAGEALLPAEKRGEGKDPAAMSAAEYLSKMALQKGSKDNISVVVVDLKGIRKFKSKSLN
partner: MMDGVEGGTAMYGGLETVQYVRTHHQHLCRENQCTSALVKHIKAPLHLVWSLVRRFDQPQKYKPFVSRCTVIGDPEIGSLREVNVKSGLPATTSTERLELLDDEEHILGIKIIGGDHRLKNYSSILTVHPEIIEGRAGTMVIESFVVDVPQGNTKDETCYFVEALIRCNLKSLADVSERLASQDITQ
B2: Protein phosphatase 2C 56 (Arabidopsis thaliana (Mouse-ear cress)), P49597 (parent)
chain: MEEVSPAIAGPFRPFSETQMDFTGIRLGKGYCNNQYSNQDSENGDLMVSLPETSSCSVSGSHGSESRKVLISRINSPNLNMKESAAADIVVVDISAGDEINGSDITSEKKMISRTESRSLFEFKSVPLYGFTSICGRRPEMEDAVSTIPRFLQSSSGSMLDGRFDPQSAAHFFGVYDGHGGSQVANYCRERMHLALAEEIAKEKPMLCDGDTWLEKWKKALFNSFLRVDSEIESVAPETVGSTSVVAVVFPSHIFVANCGDSRAVLCRGKTALPLSVDHKPDREDEAARIEAAGGKVIQWNGARVFGVLAMSRSIGDRYLKPSIIPDPEVTAVKRVKEDDCLILASDGVWDVMTDEEACEMARKRILLWHKKNAVAGDASLLADERRKEGKDPAAMSAAEYLSKLAIQRGSKDNISVVVVDLKPRRKLKSKPLN
partner: B1 partner

Variants of: B1
Details: with pyl9_arath PYL9, Q84MC7

| Variant | effect of a mutation on the interaction |
| --- | --- |
| G168D | disrupting interaction |

Variants of: B2
Details: with pyl9_arath PYL9, Q84MC7

| Variant | effect of a mutation on the interaction |
| --- | --- |
| G180D | decreasing interaction |
